Measurements from paper PMC2956063.
Where no end group is shown, it is not given here.

Columns and labels:
[1] = target: normal recombinant fibrinogen (UniProt P02671); experiment: plasmin protection assay
[2] = target: recombinant γN308K fibrinogen (UniProt P02671); experiment: plasmin protection assay

For GPRP-NH2 [GPRP-amide], the GPRP concentration of full protection [1] was 5 mM, the GPRP concentration at which fragment D1 was readily evident [2] was 0.5 mM and the GPRP concentration of full protection [2] was > 20 mM. It also gave a fold weaker than normal fibrinogen [2] of 10 fold.
